Experimental findings from US20230083243A1 (VEGA THERAPEUTICS, published 2023) are described below.

For assay [1], the target named is T1, human Protein S (human, UniProt P07225 42-676).
T1 construct: also called ProS; ProS1
T1 sequence: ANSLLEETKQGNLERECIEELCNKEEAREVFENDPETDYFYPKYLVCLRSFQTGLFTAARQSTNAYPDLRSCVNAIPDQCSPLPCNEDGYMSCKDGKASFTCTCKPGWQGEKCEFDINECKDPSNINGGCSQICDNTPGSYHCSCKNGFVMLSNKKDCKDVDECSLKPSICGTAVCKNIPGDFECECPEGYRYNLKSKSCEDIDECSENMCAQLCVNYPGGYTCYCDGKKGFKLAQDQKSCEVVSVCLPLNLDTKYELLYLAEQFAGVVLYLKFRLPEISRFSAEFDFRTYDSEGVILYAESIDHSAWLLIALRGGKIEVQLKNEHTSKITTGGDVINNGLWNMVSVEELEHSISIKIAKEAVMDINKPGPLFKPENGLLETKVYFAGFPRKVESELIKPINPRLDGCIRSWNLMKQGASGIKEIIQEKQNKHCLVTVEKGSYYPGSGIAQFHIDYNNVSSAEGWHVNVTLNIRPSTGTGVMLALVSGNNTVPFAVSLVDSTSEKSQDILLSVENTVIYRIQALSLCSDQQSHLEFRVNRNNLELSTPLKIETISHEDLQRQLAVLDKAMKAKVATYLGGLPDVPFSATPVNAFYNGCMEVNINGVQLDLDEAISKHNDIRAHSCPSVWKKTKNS
The experiment in a line: SPR Biacore X100; antibody captured by anti-human IgG (Fc); Protein S 2-128 nM; 5 mM CaCl2; 1:1 fit. How it is done:
Binding characteristics of the Protein S antibodies were also determined. Binding interaction analysis was obtained by Surface Plasmon Resonance in a Biacore X100 instrument. The human anti-IgG (Fc) antibody was immobilized to the carboxymethylated dextran membrane on the sensor chip surface (CM5) via the free amine method for a contact time of 420 seconds. Human anti-IgG antibody at 25 μg/mL in 0.15 M NaCl was immobilized to 9,785 RU in 10 mM sodium acetate pH 5.0.
Dilution and running buffer were as follows: Hbs−EP+5 mM CaCl₂. Regeneration was obtained by 3 M MgCl₂. Binding constants (ka, kd, and KD) were determined using the Biacore X100 evaluation software, assuming a 1:1 interaction of Protein S and the tested monoclonal antibody under investigation.
(In general: In SPR one partner is held on a chip, and binding of the other changes the refractive index at the surface.)

The target in assay [2] is T1, human Protein S. The experiment in a line: BLI Octet; antibody on anti-human Fc probe; Protein S 7.81-500 nM; 4 mM CaCl2. As for the experimental part:
(§1) Binding characteristics of the Protein S antibodies were also further characterized using Octet. Using the Octet System (Sartorius), the binding of each antibody to both human and cynomolgus monkey (“cyno” in Table 10) Protein S was determined. The human Fc antibodies were immobilized onto anti-human Fc capture probes by placing the probes into 10 μg/ml antibody solution in 10 mg/ml bovine serum albumin, 20 mM Tris pH 7.0, 150 mM NaCl, and 4 mM calcium chloride. […] Next, the probes were placed into buffer and the dissociation rates were measured.
For orientation: Biolayer interferometry detects binding as a change in optical thickness at a sensor tip.

Assay [3] has as its target T2, cynomolgus monkey Protein S (cynomolgus monkey).
T2 construct: also called cyno Protein S
The assay is described as above. How it is done: as §1

B1: Antibody 9 (antibody, V domains shown)
VH: QVQLVQSGAEVKKPGSSVKVSCKASGDTFSNHAINWVRQAPGQGLEWMGGYIPIFGTTNSAQKFRGRVTITADKSTNTAYMALSSLRSEDTAVYYCARGGLAGSHYKNYYYDGMDVWGQGTTVTVSS
VL: not shown
notes: Same variable regions as Antibody 21
One may read the Kd as a measure of binding affinity in units of concentration. One may read the koff as the rate constant with which the complex falls apart. A word on the kon: it is a measure of how fast the partners come together. Take B1: the Kd with human Protein S [1] came to 15.9 nM; with human Protein S [2] it was 0.533 nM; in assay [3], 0.266 nM. In addition, the koff was 0.00336 s⁻¹ with human Protein S [1], 0.000162 s⁻¹ with human Protein S [2] and 4.42e-05 s⁻¹ in assay [3]. Besides, the kon with human Protein S [1] worked out at 212000 M⁻¹ s⁻¹; in the assay with human Protein S [2] it was 304000 M⁻¹ s⁻¹; in assay [3], 166000 M⁻¹ s⁻¹.

B2: Antibody 6 (antibody, V domains shown)
VH: QVQLQESGPGLVKPSETLSLTCTVSGGSISNYYWNWIRQPPGKGLEWIGYIYYIGITDYNPSLKSRVTISVDTSKNQFSLKVTSVTAADTAVYYCAALSGDHAFDIWGQGTLVTVSS
VL: not shown
notes: Same variable regions as Antibody 18
On to B2, for which the Kd in the assay with human Protein S [1] is 5.79 nM; with human Protein S [2] it was 1.47 nM; in assay [3], 2.81 nM. Also, the values for the koff (with human Protein S [1]; with human Protein S [2]; in assay [3]) were 0.0016 s⁻¹, 0.000332 s⁻¹ and 0.000394 s⁻¹, respectively. For the same molecule, the kon amounted to 280000 M⁻¹ s⁻¹ with human Protein S [1], 226000 M⁻¹ s⁻¹ in the assay with human Protein S [2] and 140000 M⁻¹ s⁻¹ in assay [3].

B3: Antibody 43 (antibody, V domains shown)
VH: QVQLVQSGAEVKKPGASVKVSCKASGYTFTSYYIHWVRQAPGQGLEWMGVTSPSGRSTSFAQKFQGRVTMTRDTSTSAVYMDLDSLRSEDTAVYYCARGGVTIHLERRGYFDYWGQGTLVIVSS
VL: not shown
notes: Same variable regions as Antibody 44
For B3, in the assay with human Protein S [2], the dissociation constant Kd turned out to be 1.99 nM, the koff turned out to be 0.000636 s⁻¹ and the on-rate (kon) was found to be 320000 M⁻¹ s⁻¹. In assay [3], this molecule showed a Kd of 3.88 nM, an off-rate (koff) of 0.00104 s⁻¹ and a kon of 268000 M⁻¹ s⁻¹.

B4: Antibody 1 (antibody, V domains shown)
VH: QVQLVQSGAEVKKPGSSVKVSCKVSGGTFSSYSISWVRQAPGQGLEWMGGIIPIFGTTNYAQKFQGRVTITADESTSTAYMDLSSLKSEDTAMYYCEGGRVGADFDYWGQGTLVTVSS
VL: SSDLTQGPAVSVALGQTVRITCQGDSLRNYYASWYQQKPGQAPVPVIYGKNDRPSGIPDRFSGSISGNTASLTITGAQAEDEAHYYCNSRDSSGNHVVFGGGTKLTVL
notes: Same variable regions as Antibody 13
For the molecule B4, the Kd in the assay with human Protein S [1] was 1.33 nM; in the assay with human Protein S [2], less than 0.001 nM; in assay [3], less than 0.001 nM. Besides, the koff is 0.00039 s⁻¹ with human Protein S [1], less than 1e-07 s⁻¹ in the assay with human Protein S [2] and less than 1e-07 s⁻¹ in assay [3]. In addition, the kon was 290000 M⁻¹ s⁻¹ with human Protein S [1], 169000 M⁻¹ s⁻¹ in the assay with human Protein S [2] and 139000 M⁻¹ s⁻¹ in assay [3].

B5: Antibody 4 (antibody, V domains shown)
VH: QVQLVESGGGVVQPGRSLRLSCAASGFTFSTYGFHWVRQPPGKGLEWVAVIYYDGINKYYADSVKGRFTISRDNSKNTLFLQMNSLRAEDTAVYYCAESDLDYWGQGTLVTVSS
VL: EIVLTQSPATLSLSPGERATLSCRASQSVSIYLAWYQQKPGQAPRLLIYDASNRATGIPARFSGSGSGTDFTLTISSLEPEDFAVYYCQQRSNWPLTFGPGTKVDIK
notes: Same variable regions as Antibody 16
In the assay with human Protein S [1], B5 registered a Kd of 4.13 nM, a koff of 0.00165 s⁻¹ and an on-rate constant (kon) of 399000 M⁻¹ s⁻¹. In the assay with human Protein S [2], this molecule had a Kd of 2.62 nM, a koff of 0.000708 s⁻¹ and a kon of 271000 M⁻¹ s⁻¹. In assay [3], this molecule returned a Kd of 15.3 nM, a koff of 0.00308 s⁻¹ and a kon of 201000 M⁻¹ s⁻¹.

B6: Antibody 8 (antibody, V domains shown)
VH: QVQLQESGPGLVKPSETLSLTCAVSGYSISSGYYWGWIRQPPGKGLDWIGSIYYSGSTYYNPSLKSRVTISVDTSKNQISLKLSSVTAADTAVYYCATTYSDIVTGYYNDAFDIWGQGTMVTVSS
VL: EIVMTQSPATLSVSPGERATLSCRASQRINSNLAWYQQKPGQAPRLLIYGASTRATGIPARFSGSGSGTEFTLTISSLQSEDFAAYYCQQYDNWPLTFGGGTKVEIK
notes: Same variable regions as Antibody 20
Consider B6, for which, in the assay with human Protein S [1], the Kd turned out to be 6.25 nM, the koff worked out at 0.000823 s⁻¹ and the kon came out at 132000 M⁻¹ s⁻¹. Also, in the assay with human Protein S [2], binding was put at a Kd of 0.514 nM, the koff came out at 6.7e-05 s⁻¹ and the kon turned out to be 131000 M⁻¹ s⁻¹. In assay [3], this molecule yielded a Kd of 1.55 nM, a koff of 0.000133 s⁻¹ and a kon of 85800 M⁻¹ s⁻¹.

B7: Antibody 28 (antibody, V domains shown)
VH: QVQLQQSGTELVRPGTSVKMSCKAAGYTFTNHWIGWVKQRPGHGLEWIGDIYPGGGYTNYNEKFKGKASLTADTSSTTAYMQLSSLTSEDSAIYYCSRFGDQNWAWFAYWGQGTLVTVSA
VL: DIQMNQSPSSLSASLGDTITITCRASQNIHMWLSWYQQKPGNIPKLLIFKTSNLHTGVPSRFSGSGSGTDFTLTISSLQPEDIATYYCLQGQSYPFTFGGGTKLEIK
B7: in the assay with human Protein S [2], the Kd came to 6.78 nM, the koff came to 0.00106 s⁻¹ and the kon worked out at 156000 M⁻¹ s⁻¹. In assay [3], the affinity, expressed as Kd, was 9.81 nM; the koff stood at 0.00106 s⁻¹; the on-rate constant (kon) was 109000 M⁻¹ s⁻¹.

B8: Antibody 27 (antibody, V domains shown)
VH: QVQLQQSGPGLVKPSQTLSLTCAISGDSVSNNNAAWNWIRQSPSRGLEWLGGTYYRSKWYNDYAVSVKSRIIINPVTSKNQFSLQLNSVTPEDTAVYYCARGSSWYRFFDYWGQGTLVTVSS
VL: EIVLTQSPGTLSLSPGERATLSCRASQSVGSSYLAWYQQKPGQAPRLLISGASGRATGIPDRFSGSGSGTDFTLTISRLEPEDFTVYYCQQYGSSPYTFGQGTKLEIK
notes: Same variable regions as Antibody 33
As to B8, in the assay with human Protein S [2], the dissociation constant Kd is 0.574 nM, the koff came out at 0.000159 s⁻¹ and the kon worked out at 277000 M⁻¹ s⁻¹. In assay [3], this molecule returned an equilibrium dissociation constant (Kd) of 34.3 nM, a dissociation rate constant (koff) of 0.00233 s⁻¹ and a kon of 67900 M⁻¹ s⁻¹.

B9: Antibody 12 (antibody, V domains shown)
VH: QVQLQESGPGLVKPSETLSLTCGVSGGSISSTNWWSWVRQPPGKGLEWIGEIYQTGSTDYDPSLKSRVTISIDKSKNQFSLKLYSVTAADTAVYYCARRFGELDYWGQGTLVTVSS
VL: EIVMTQSPATLSVSPGERATLSCRASQSVTSNLAWYQQKPGQAPRLLIYDASTRATGIPARFSGSGSGTEFTLTISSLQSEDFAIYYCQQYNNWPTFGQGTRLEIK
notes: Same variable regions as Antibody 24
As to B9, in the assay with human Protein S [1], binding was put at a Kd of 14.4 nM, the koff was determined as 0.00947 s⁻¹ and the kon is 657000 M⁻¹ s⁻¹. In the assay with human Protein S [2], this molecule displayed a Kd of 7.49 nM, a koff of 0.00232 s⁻¹ and a kon of 309000 M⁻¹ s⁻¹. In assay [3], this molecule came in with a Kd of 11.3 nM, a koff of 0.00291 s⁻¹ and a kon of 258000 M⁻¹ s⁻¹.

B10: Antibody 2 (antibody, V domains shown)
VH: QVQLQESGPGLVKPSQTLSLTCTVSGGSITSDGYHWSWIRQYPGKGLDWIGYIYYTGNTYYNPSLKSRVTISVGTSQNQFSLKLISVTAADTAVYYCARRLSTGPYFDYWGQGTLVTVSS
VL: QSALTQPASVSGSPGQSITISCTGTSSDVGGYEFVSWYQHHPGKAPKLMIYDVSSRPSGVSNRFSGSKSGNTASLTISGLQAEDEADYYCSSYTRSSTVVFGGGARLTVL
notes: Same variable regions as Antibody 14
In the assay with human Protein S [1], B10 registered a dissociation constant Kd of 1.63 nM, a koff of 0.00056 s⁻¹ and a kon of 346000 M⁻¹ s⁻¹. In the assay with human Protein S [2], this molecule returned a Kd of less than 0.001 nM, a koff of less than 1e-07 s⁻¹ and a kon of 207000 M⁻¹ s⁻¹. Besides, in assay [3], the Kd is less than 0.001 nM, the koff was less than 1e-07 s⁻¹ and the kon was determined as 154000 M⁻¹ s⁻¹.

B11: Antibody 7 (antibody, V domains shown)
VH: QLQLQESGPGLVKPSETLSLTCTVSGGSISSSSYYWGWIRQPPGKGLEWIGNIYYSGNTYYNPSLKSRVTISVDTSKNQFSLKLSSMTAADTAVYYCARCSGYGYSSGRSYFDYWGQETLVTVSS
VL: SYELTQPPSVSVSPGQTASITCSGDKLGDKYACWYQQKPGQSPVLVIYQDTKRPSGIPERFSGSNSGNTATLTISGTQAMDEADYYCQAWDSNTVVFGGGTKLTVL
notes: Same variable regions as Antibody 19
In the assay with human Protein S [1], B11 gave a Kd of 20 nM, a koff of 0.005 s⁻¹ and an association rate constant (kon) of 252000 M⁻¹ s⁻¹. In the assay with human Protein S [2], this molecule showed a Kd of 8.18 nM, a koff of 0.00141 s⁻¹ and a kon of 172000 M⁻¹ s⁻¹. For the same molecule, in assay [3], binding was put at a Kd of 16.9 nM, the dissociation rate constant (koff) is 0.00232 s⁻¹ and the kon was 137000 M⁻¹ s⁻¹.
